For this data set, the system named is Escherichia coli TOP10. Kind of data set: shrunken log2 fold change of peptide-encoding DNA abundance (4.5 h post-induction vs induction); higher = less antimicrobial activity (less host growth inhibition). The conditions noted are these: time post-induction: 4.5 h; library: site-saturation at positions 5, 18, 19, 20.
With RRIRRRPPRLPRPRPRPPMKPRP, the “shrunken log2 fold change” value came to 0.522.

As for RRIRFRPPRLPRPRPRPSPNPRP, the “shrunken log2 fold change” value is -0.399.

Regarding RRIRRRPPRLPRPRPRPCSLPRP, the “shrunken log2 fold change” value is 0.00239.

Consider RRIRTRPPRLPRPRPRPYIQPRP, for which the “shrunken log2 fold change” value is -0.274.

Consider RRIRHRPPRLPRPRPRPGIGPRP, for which the “shrunken log2 fold change” value is -0.0787.

Turning to RRIRARPPRLPRPRPRPFTTPRP, the “shrunken log2 fold change” value was -0.0831.

For RRIRNRPPRLPRPRPRPWLRPRP, the “shrunken log2 fold change” value is -0.0603.

In the case of RRIRARPPRLPRPRPRPNQLPRP, the “shrunken log2 fold change” value is -0.0527.

Turning to RRIRCRPPRLPRPRPRPRTEPRP, the “shrunken log2 fold change” value is 0.0022.

RRIRGRPPRLPRPRPRPCLRPRP: the “shrunken log2 fold change” value stood at 0.459.

For RRIRIRPPRLPRPRPRPDCIPRP, the “shrunken log2 fold change” value came out at 0.0653.

Turning to RRIRNRPPRLPRPRPRPGETPRP, the “shrunken log2 fold change” value was determined as 0.0546.

As to RRIRMRPPRLPRPRPRPNEYPRP, the “shrunken log2 fold change” value was -0.0432.

RRIRRRPPRLPRPRPRPTCWPRP: the “shrunken log2 fold change” value amounted to 0.225.

For the sequence RRIRRRPPRLPRPRPRPNAYPRP, the “shrunken log2 fold change” value is 0.0409.

With RRIRWRPPRLPRPRPRPLTKPRP, the “shrunken log2 fold change” value worked out at 0.23.

With RRIRFRPPRLPRPRPRPPSQPRP, the “shrunken log2 fold change” value was -0.0751.

In the case of RRIRIRPPRLPRPRPRPGEQPRP, the “shrunken log2 fold change” value was -0.0156.

As to RRIRPRPPRLPRPRPRPPSAPRP, the “shrunken log2 fold change” value was 1.05.

Turning to RRIRDRPPRLPRPRPRPEQQPRP, the “shrunken log2 fold change” value stood at 0.374.

On to RRIRKRPPRLPRPRPRPACMPRP, for which the “shrunken log2 fold change” value stood at 0.605.

For the sequence RRIRIRPPRLPRPRPRPEDKPRP, the “shrunken log2 fold change” value is -0.401.

RRIRIRPPRLPRPRPRPGMWPRP: the “shrunken log2 fold change” value was found to be 0.0422.

Turning to RRIRFRPPRLPRPRPRPDIDPRP, the “shrunken log2 fold change” value turned out to be 0.0707.

Consider RRIRWRPPRLPRPRPRPRMFPRP, for which the “shrunken log2 fold change” value was determined as 0.182.

For the sequence RRIRTRPPRLPRPRPRPMRYPRP, the “shrunken log2 fold change” value is -0.0953.

Regarding RRIRGRPPRLPRPRPRPGKMPRP, the “shrunken log2 fold change” value was determined as 0.224.

Regarding RRIRPRPPRLPRPRPRPVRKPRP, the “shrunken log2 fold change” value amounted to 0.73.

RRIRTRPPRLPRPRPRPSYMPRP: the “shrunken log2 fold change” value is -1.28.

On to RRIRQRPPRLPRPRPRPRRHPRP, for which the “shrunken log2 fold change” value is -0.0734.

Turning to RRIRYRPPRLPRPRPRPNGHPRP, the “shrunken log2 fold change” value was -0.24.

Take RRIRARPPRLPRPRPRPRTTPRP: the “shrunken log2 fold change” value was found to be 0.755.

In the case of RRIRARPPRLPRPRPRPEYKPRP, the “shrunken log2 fold change” value is -0.0123.

Turning to RRIRARPPRLPRPRPRPHRWPRP, the “shrunken log2 fold change” value came to 0.0671.

RRIRMRPPRLPRPRPRPMGWPRP: the “shrunken log2 fold change” value was 0.808.

Regarding RRIRARPPRLPRPRPRPWLAPRP, the “shrunken log2 fold change” value was found to be 0.162.

Regarding RRIRCRPPRLPRPRPRPAKEPRP, the “shrunken log2 fold change” value was -0.0092.

For RRIRFRPPRLPRPRPRPSTKPRP, the “shrunken log2 fold change” value was determined as 0.0858.

Regarding RRIRFRPPRLPRPRPRPADEPRP, the “shrunken log2 fold change” value came to 0.173.

For RRIRDRPPRLPRPRPRPYHMPRP, the “shrunken log2 fold change” value was -0.00968.

Take RRIRQRPPRLPRPRPRPNYEPRP: the “shrunken log2 fold change” value was -0.123.

Take RRIRDRPPRLPRPRPRPCACPRP: the “shrunken log2 fold change” value was 0.112.

With RRIRTRPPRLPRPRPRPCANPRP, the “shrunken log2 fold change” value was -0.148.

With RRIRSRPPRLPRPRPRPFYEPRP, the “shrunken log2 fold change” value is -0.165.

For RRIRKRPPRLPRPRPRPGFWPRP, the “shrunken log2 fold change” value was found to be 0.537.

In the case of RRIRYRPPRLPRPRPRPRGIPRP, the “shrunken log2 fold change” value is -0.0542.

Regarding RRIRPRPPRLPRPRPRPPTFPRP, the “shrunken log2 fold change” value was -0.142.

Regarding RRIRIRPPRLPRPRPRPMHPPRP, the “shrunken log2 fold change” value was determined as 0.00185.

Turning to RRIRQRPPRLPRPRPRPYFRPRP, the “shrunken log2 fold change” value is -0.368.

For RRIRFRPPRLPRPRPRPYEMPRP, the “shrunken log2 fold change” value is -0.412.

RRIRWRPPRLPRPRPRPVRMPRP: the “shrunken log2 fold change” value is -0.0133.

Take RRIRWRPPRLPRPRPRPFIEPRP: the “shrunken log2 fold change” value is -0.441.

As to RRIRPRPPRLPRPRPRPPTRPRP, the “shrunken log2 fold change” value came out at 0.683.

Turning to RRIRVRPPRLPRPRPRPAMGPRP, the “shrunken log2 fold change” value stood at 0.34.

On to RRIRYRPPRLPRPRPRPFGMPRP, for which the “shrunken log2 fold change” value was -0.00968.

On to RRIRNRPPRLPRPRPRPRMGPRP, for which the “shrunken log2 fold change” value stood at 0.0394.

On to RRIRPRPPRLPRPRPRPCSPPRP, for which the “shrunken log2 fold change” value was determined as 0.0563.

In the case of RRIRTRPPRLPRPRPRPMYAPRP, the “shrunken log2 fold change” value was -0.121.

As to RRIRTRPPRLPRPRPRPRADPRP, the “shrunken log2 fold change” value worked out at 0.158.

For the sequence RRIRYRPPRLPRPRPRPLWKPRP, the “shrunken log2 fold change” value is -0.0695.

Regarding RRIRSRPPRLPRPRPRPIGKPRP, the “shrunken log2 fold change” value came to 0.0386.

As for RRIRGRPPRLPRPRPRPFLDPRP, the “shrunken log2 fold change” value was 0.209.

As for RRIRERPPRLPRPRPRPWILPRP, the “shrunken log2 fold change” value came out at 0.0494.

For RRIRPRPPRLPRPRPRPNESPRP, the “shrunken log2 fold change” value is -0.00438.

For RRIRARPPRLPRPRPRPQLSPRP, the “shrunken log2 fold change” value amounted to 0.329.

For RRIRGRPPRLPRPRPRPIERPRP, the “shrunken log2 fold change” value is -0.00587.

Take RRIRFRPPRLPRPRPRPQHGPRP: the “shrunken log2 fold change” value is -0.126.

With RRIRARPPRLPRPRPRPFFKPRP, the “shrunken log2 fold change” value was -0.0427.

In the case of RRIRERPPRLPRPRPRPNECPRP, the “shrunken log2 fold change” value was -0.154.

For RRIRSRPPRLPRPRPRPTKEPRP, the “shrunken log2 fold change” value is -0.441.

Consider RRIRLRPPRLPRPRPRPWNNPRP, for which the “shrunken log2 fold change” value is -0.225.

RRIRTRPPRLPRPRPRPFPGPRP: the “shrunken log2 fold change” value was -0.21.

As for RRIRGRPPRLPRPRPRPHEKPRP, the “shrunken log2 fold change” value stood at 0.0144.

RRIRYRPPRLPRPRPRPNNVPRP: the “shrunken log2 fold change” value is -0.323.

On to RRIRHRPPRLPRPRPRPRESPRP, for which the “shrunken log2 fold change” value was -0.0496.

In the case of RRIRTRPPRLPRPRPRPYGRPRP, the “shrunken log2 fold change” value is -0.27.

Turning to RRIRHRPPRLPRPRPRPDLQPRP, the “shrunken log2 fold change” value was -0.15.

RRIRNRPPRLPRPRPRPKFLPRP: the “shrunken log2 fold change” value stood at 0.0309.

As for RRIRDRPPRLPRPRPRPTKVPRP, the “shrunken log2 fold change” value was -0.274.

With RRIRVRPPRLPRPRPRPRDLPRP, the “shrunken log2 fold change” value was 0.0448.

RRIRPRPPRLPRPRPRPQSAPRP: the “shrunken log2 fold change” value is 1.69.

Consider RRIRDRPPRLPRPRPRPVLNPRP, for which the “shrunken log2 fold change” value was -0.165.

For RRIRLRPPRLPRPRPRPGHTPRP, the “shrunken log2 fold change” value was 0.183.

For the sequence RRIRSRPPRLPRPRPRPGQTPRP, the “shrunken log2 fold change” value was -0.0742.

Consider RRIRFRPPRLPRPRPRPDFNPRP, for which the “shrunken log2 fold change” value was -0.637.

As for RRIRLRPPRLPRPRPRPDKQPRP, the “shrunken log2 fold change” value is -6.78e-05.

Consider RRIRVRPPRLPRPRPRPPDTPRP, for which the “shrunken log2 fold change” value was 0.166.

Turning to RRIRYRPPRLPRPRPRPHGWPRP, the “shrunken log2 fold change” value is -0.0273.

Consider RRIRGRPPRLPRPRPRPRFKPRP, for which the “shrunken log2 fold change” value was 0.449.

Regarding RRIRRRPPRLPRPRPRPGCRPRP, the “shrunken log2 fold change” value was 0.459.

Regarding RRIRERPPRLPRPRPRPTECPRP, the “shrunken log2 fold change” value is -0.00173.
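Also: peptides expressed intracellularly from a pBAD plasmid library in pooled LB shake-flask culture, induced with 0.3% L-arabinose, DNA abundance read by NGS, three biological replicates, DESeq2 with apeglm shrinkage.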
